Data reported in publication PMC12607020, “NITAC-mediated ISGylation of eIF4E2 attenuates GSK3β proline-directed kinase activity, conferring cytoprotection” (The Journal of Biological Chemistry, 2025).

B1: His6-tagged Nb.28E11 (VHH)
VHH: QVQLQESGGGLVQAGGSLRLSCAASGRTFSSYAMGWFRQAPGKEREFVAAISSGGSITNYADSVKGRFTISRDNAKNTVYLQMNSLKPEDTAVYYCAARYHSLYYGYWGQGTQVTVSS
notes: nanobody from a synthetic yeast-display library; also called His6-Nb.28E11; source: E. coli BL21, purified (Ni-NTA)
B2: His6-tagged Nb.30C7 (VHH)
VHH: QVQLQESGGGLVQAGGSLRLSCAASGYTFSSNVMGWFRQAPGKEREFVAAINSGGGRTNYADSVKGRFTISRDNAKNTVYLQMNSLKPEDTAVYYCAAYGRANSSYNYGYWGQGTQVTVSS
notes: nanobody from a synthetic yeast-display library; also called His6-Nb.30C7; source: E. coli BL21, purified (Ni-NTA)

Biological target: T1, GST-eIF4E2 (UniProt O60573 1-245)
T1 construct: eukaryotic translation initiation factor 4E family member 2 (eIF4E2, 4EHP); also called GST-tagged eIF4E2; source: E. coli BL21, purified (glutathione sepharose beads)
T1 sequence (looked up): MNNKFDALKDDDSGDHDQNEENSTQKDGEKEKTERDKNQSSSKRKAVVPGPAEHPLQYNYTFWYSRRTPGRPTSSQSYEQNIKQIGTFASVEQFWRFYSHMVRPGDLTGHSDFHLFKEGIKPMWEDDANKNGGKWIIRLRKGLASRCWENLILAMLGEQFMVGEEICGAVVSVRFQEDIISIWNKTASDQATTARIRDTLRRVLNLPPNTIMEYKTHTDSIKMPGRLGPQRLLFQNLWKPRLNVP
Assay: pull-down; GST pull-down: 1 nM His6-tagged and 1 nM GST-tagged protein in 50 mM Hepes pH 7.5, 50 mM NaCl, 2 mM EDTA, 0.1% NP-40, 10% glycerol, 2 h at 4 °C; glutathione-sepharose beads; immunoblot
Settings: both partners purified

Binder | binding result
B1 | binds
B2 | binds
